In patent US20240173426A1 (Regeneron, published 2024):
Positions count from the first letter of the chain named.

T1: human FGFR3b expressed with a C-terminal murine Fc tag (hFGFR3b.mFc) (human)
T1 construct: called dimeric; also called REGN3153; dimeric human FGFR3b
T1 chain: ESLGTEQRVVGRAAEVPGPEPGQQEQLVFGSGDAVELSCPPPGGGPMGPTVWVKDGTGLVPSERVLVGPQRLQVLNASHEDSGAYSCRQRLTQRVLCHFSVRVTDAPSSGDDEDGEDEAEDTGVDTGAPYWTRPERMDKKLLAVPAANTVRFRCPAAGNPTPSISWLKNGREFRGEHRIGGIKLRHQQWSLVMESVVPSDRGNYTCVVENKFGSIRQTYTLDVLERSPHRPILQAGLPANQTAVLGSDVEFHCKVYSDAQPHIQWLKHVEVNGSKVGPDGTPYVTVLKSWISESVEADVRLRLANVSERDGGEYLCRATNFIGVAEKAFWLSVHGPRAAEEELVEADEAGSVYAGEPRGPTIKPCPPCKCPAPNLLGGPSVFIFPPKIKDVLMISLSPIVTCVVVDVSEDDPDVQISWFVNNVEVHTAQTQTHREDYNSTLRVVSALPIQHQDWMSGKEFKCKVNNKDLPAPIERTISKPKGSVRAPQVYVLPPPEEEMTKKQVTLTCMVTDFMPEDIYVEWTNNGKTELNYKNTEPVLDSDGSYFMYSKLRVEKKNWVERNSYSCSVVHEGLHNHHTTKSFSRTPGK

T2: human FGFR3b expressed with a C-terminal myc-myc-hexahistidine tag (hFGFR3b.mmH) (human)
T2 construct: monomeric; also called REGN3152; monomeric human FGFR3b
T2 chain: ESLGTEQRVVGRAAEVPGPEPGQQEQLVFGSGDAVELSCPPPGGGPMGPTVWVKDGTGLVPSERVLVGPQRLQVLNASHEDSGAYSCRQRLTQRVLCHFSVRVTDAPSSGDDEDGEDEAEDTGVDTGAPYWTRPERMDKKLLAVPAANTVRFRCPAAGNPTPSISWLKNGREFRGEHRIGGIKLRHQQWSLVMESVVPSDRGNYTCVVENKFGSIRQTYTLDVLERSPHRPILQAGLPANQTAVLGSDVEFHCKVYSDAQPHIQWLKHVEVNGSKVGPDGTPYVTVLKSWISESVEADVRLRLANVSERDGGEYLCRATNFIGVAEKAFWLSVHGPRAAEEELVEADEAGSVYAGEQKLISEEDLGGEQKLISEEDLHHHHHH

T3: cynomolgus FGFR3b expressed with a C-terminal myc-myc-hexahistidine tag (mfFGFR3b.mmH) (cynomolgus)
T3 construct: The name states R357G; also called REGN3521; mf FGFR3b ecto (R357G) (E23-G377;R357G).mmH
T3 chain: T2 chain with A13V, P17S, G22S, T57A, R94L, R171K

T4: murine FGFR3b expressed with a C-terminal myc-myc-hexahistidine tag (mFGFR3b.mmH) (mouse)
T4 construct: monomeric; also called REGN3215; monomeric murine FGFR3b
T4 chain: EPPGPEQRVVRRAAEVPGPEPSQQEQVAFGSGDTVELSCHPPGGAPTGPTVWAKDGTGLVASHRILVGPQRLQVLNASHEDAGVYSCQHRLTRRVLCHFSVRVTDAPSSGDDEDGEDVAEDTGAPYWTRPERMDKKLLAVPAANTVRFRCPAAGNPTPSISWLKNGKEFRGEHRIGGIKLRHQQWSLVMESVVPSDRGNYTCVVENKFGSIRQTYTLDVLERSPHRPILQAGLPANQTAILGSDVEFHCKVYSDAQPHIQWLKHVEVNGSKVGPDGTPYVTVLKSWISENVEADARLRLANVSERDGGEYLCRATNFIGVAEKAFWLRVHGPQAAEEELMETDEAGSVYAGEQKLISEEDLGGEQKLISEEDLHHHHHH

B1: H4H30117P2 (antibody, human IgG4 S228P, kappa, V domains shown)
VH: QVQLVQSGAEVKKPGSSVKVSCKASGDTFSNYVIGWVRQAPGQGLEWMGGIIPIFGTTNYAQQFQGRVTITTDESTSTAYMELSSLRSEDTAVYYCARDGNYGDYFDYWGQGTLVTVSS
VL: not shown
B2: H4H30095P2 (antibody, human IgG4 S228P, kappa, V domains shown)
VH: QVQLVQSGVEVKKPGASVKVSCKASGYTFKFYGISWVRQAPGQGLEWMGWISVYNGKTKYAQKLQGRVTMTTDTSTSTAYMELRSLRSDDTAVYFCARDGDYESSGYPFDYWGQGTLVTVSS
VL: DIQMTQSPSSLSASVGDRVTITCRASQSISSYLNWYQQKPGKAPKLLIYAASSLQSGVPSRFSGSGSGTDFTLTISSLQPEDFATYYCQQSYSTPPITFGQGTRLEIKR
B3: H4H30045P (antibody, human IgG4 S228P, kappa, V domains shown)
VH: QVQLVQSGAEVKKPGASVKVSCKTSGYRFVNYGFSWVRQAPGQGLEWMGWISPYNGNTNYIQNLQDRITMTTDTSTNTAYMELTNLRSDDTAVYYCATLTGVHFDYWGQGTLVTVSS
VL: AIQMTQSPSSLSASVGDRVTITCRASQGIRNDLGWYQQKPGKAPNLLIFETSRLQSGVPSRFSGSGSGTDFTLTINSLQPEDFATYYCLQDYNYPWTFGQGTKVEIKR
B4: H4H30063P (antibody, human IgG4 S228P, kappa, V domains shown)
VH: QVQLQESGPGLVKPSETLSLTCTVSGDSINSYFWSWIRQLPGKELEWIGHIYSSGSTRYNPSLQSRVTISIDTSKNQFSLKLSSVTAADTAVYYCARGASAVDYWGQGTLVTVSS
VL: EIVLTQSPGTLSLSPGERATLSCRTSQSISSGYLAWYQQKPGQAPRLLIYGASRRATGIPDRFSGSGSGTDFTLTISRLEPEDFVVYYCQQYGSSPYTFGQGTKLEIKR
notes: Tested as whole antibody; also called anti-FGFR3b antibody H4H30063P
B5: H4H30066P (antibody, human IgG4 S228P, kappa, V domains shown)
VH: QVQLVQSGAEVKKPGASVKVSCKVSGYTLTELSMHWVRQAPGKGLEWMGGFDPEDGEIIYAQKFQGRVTMTEDTSTDTAYMDLSSLTSEDTAVYYCATEKQQLVRKYYFYYGLAVWGQGTTVTVSS
VL: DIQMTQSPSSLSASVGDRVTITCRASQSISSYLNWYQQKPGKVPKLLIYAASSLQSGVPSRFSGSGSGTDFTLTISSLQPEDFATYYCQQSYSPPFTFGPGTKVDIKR
B6: H4H30071P (antibody, human IgG4 S228P, kappa, V domains shown)
VH: QVQLQQSGPGLVKPSQTLSLTCAISGDSVSRNSAAWNWIRQSPSSGLEWLGRTYYRSKWFYDYAISVKSRITVNPDTSKNQFSLHLNSVTPEDTAVYYCARGYGGYEDYFDYWGQGTLVTVSS
VL: DIQMTQSPSSVSASVGDRVTITCRASQGISSWLAWYQQKPGKAPKLLIYGASSLQSGVPSRFSGSGSGTDFTLTISSLQPEDFATYFCQQGSSFPYTFGQGTKLEIKR
B7: H4H30076P (antibody, human IgG4 S228P, kappa, V domains shown)
VH: EVQLVESGGGLVQPGGSLRLSCAASGFTVSSNYMSWVRQAPGKGLEWVSIIYSGGHTYYSDSVKGRFTISRHNSKNTLYLQMNSLRGGDTAVYYCARGYTSGWYGFDFWGQGTLVTVSS
VL: B6 VL with S31T, G50A, S65T, F87Y, G91T, S92N, Y96W, L104V
B8: H4H30061P (antibody, human IgG4 S228P, kappa, V domains shown)
VH: EVQLVESGGGLAQPGGSLKLSCEASGFTFSDSAMHWVRQASGKGLEWVGRIRSKANSYATGYAASVKGRFTISRDDSKNMAFLEMNSLKTEDTAVYYCLRQTYGDPWGQGTLVTVSS
VL: DVVMTQSPLSLSVTLGQPASISCRSSLSLVYSDGNNYLNWFQQRPGQSPRRLLYKVFNRDSGVPDRFSGSGSGTDFTLKISRVEAEDVGVYYCMQGTHWPWTFGQGTKVEIKR
B9: H4H30089P2 (antibody, human IgG4 S228P, kappa, V domains shown)
VH: EVQLVESGGGLVQPGGSLRLSCIVSGFIFSSYEMSWLRQAPGKGLEWISYISSSGRVIYYADSVKGRFTISRDSAKNSLYLEMNSLRAEDTAIYYCTRKWDSSGPFDFWGQGTLVTVSS
VL: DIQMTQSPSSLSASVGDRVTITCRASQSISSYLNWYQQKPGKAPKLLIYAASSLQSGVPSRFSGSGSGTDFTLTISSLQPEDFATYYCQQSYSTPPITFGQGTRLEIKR
B10: H4H30105P2 (antibody, human IgG4 S228P, kappa, V domains shown)
VH: EVQLVQSGAEVKKPGESLKISCKGSGYSFTSYWIAWVRQMPGKGLEWMGIIYPGDSDTRYSPSFQGQVTMSADKSIRIAYLQWSSLKASDTAMYYCARLDYSGSWFDYWGQGTLVTVSS
VL: not shown
B11: anti-FGFR3-hIgG1 comparator (REGN6331) (antibody, V domains shown)
VH: EVQLVESGGGLVQPGGSLRLSCAASGFTFTSTGISWVRQAPGKGLEWVGRIYPTSGSTNYADSVKGRFTISADTSKNTAYLQMNSLRAEDTAVYYCARTYGIYDLYVDYTEYVMDYWGQGTLVTVSS
VL: DIQMTQSPSSLSASVGDRVTITCRASQDVDTSLAWYKQKPGKAPKLLIYSASFLYSGVPSRFSGSGSGTDFTLTISSLQPEDFATYYCQQSTGHPQTFGQGTKVEIKR
notes: Human IgG1 comparator; also called COMP6331; anti-FGFR3 comparator antibody
B12: H4H30108P2 (antibody, human IgG4 S228P, kappa, V domains shown)
VH: QVQLVQSGAEVKKPGASVKVSCKASGYTFNSYDVNWVRQATGQGLEWMGWMNPHSGNTGYAQKFQGRVTMTRDTSTSTSYMELSSLTSEDTAVYYCARGPFSLLSAEFFQHWGQGTLVTVSS
VL: not shown
B13: H4H30102P2 (antibody, human IgG4 S228P, kappa, V domains shown)
VH: EVQLVESGGDLVQPGGSLRLSCAASGFTFSSYEMNWVRQAPGKGLEWVSYISNSGSTIYYADSVKGRFTISRDNAETSLYLQMNSLRAEDTAVYYCAREGWGAYCAGDCYSGFDIWGQGTMVTVSS
VL: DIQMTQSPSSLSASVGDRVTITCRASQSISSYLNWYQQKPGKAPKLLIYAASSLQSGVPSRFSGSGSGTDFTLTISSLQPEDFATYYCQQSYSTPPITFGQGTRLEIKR

Biological target: T1, human FGFR3b expressed with a …
Test: SPR (Biacore), captured mAb, 25 C
Description: (§1) The CM5 Biacore sensor surface was derivatized by amine coupling with a monoclonal mouse anti-human Fc monoclonal antibody (REGN2567). All Biacore binding studies were performed in a buffer composed of 0.01M HEPES pH 7.4, 0.15 M NaCl, 3 mM EDTA, 0.05% v/v Surfactant P20 (HBS-EP running buffer). […] Antibody-reagent association was monitored for 5 minutes while dissociation in HBS-EP running buffer was monitored for 10 minutes. At the end of each cycle, the anti-FGFR3 antibody capture surface was regenerated using a 10 sec injection of 20 mM phosphoric acid. All binding kinetics experiments were performed at 25° C.
(§2) The specific SPR-Biacore sensorgrams were obtained by a double referencing procedure. The double referencing was performed by first subtracting the signal of each injection over a reference surface (anti-hFc) from the signal over the experimental surface (anti-hFc-captured anti-FGFR3 antibodies) thereby removing contributions from refractive index changes. In addition, running buffer injections were performed to allow subtraction of the signal changes resulting from the dissociation of captured antibodies from the coupled anti-hFc surface. Kinetic association (kₐ) and dissociation (kd) rate constants were determined by fitting the real-time sensorgrams to a 1:1 binding model using Scrubber v2.0c curve fitting software.

| Binder | t½ [min] |
| --- | --- |
| B1 | 87 |
| B2 | 117 |
| B3 | 71.8 |
| B4 | ≥ 1160 |
| B5 | ≥ 1160 |
| B6 | ≥ 1160 |
| B7 | ≥ 1160 |
| B8 | ≥ 1160 |
| B9 | 608 |

biological target: T5, human FGFR3c expressed with a C-terminal myc-myc-hexahistidine tag (hFGFR3c.mmH) (human, UniProt P22607 23-375); test: SPR (Biacore), captured mAb, 25 C
T5 construct: monomeric; also called REGN3155; monomeric human FGFR3c
Description: as §1, §2

| Binder | t½ [min] | koff [s⁻¹] | kon [M⁻¹ s⁻¹] |
| --- | --- | --- | --- |
| B10 | 1.8 |  |  |
| B1 | 1.6 |  |  |
| B2 | 2.5 |  |  |
| B3 | 1.5 |  |  |
| B11 | 8.77 | 0.00132 | 544000 |
| B8 | 146 |  |  |

Biological target: T2, human FGFR3b expressed with a …
Test: SPR (Biacore), captured mAb, 25 C
Description: as §1, §2

| Binder | t½ [min] | koff [s⁻¹] | kon [M⁻¹ s⁻¹] |
| --- | --- | --- | --- |
| B10 | 2.3 |  |  |
| B12 | 72.6 |  |  |
| B1 | 1.8 |  |  |
| B2 | 2.3 |  |  |
| B3 | 1.9 |  |  |
| B11 | 18.8 | 0.000616 | 883000 |
| B4 | 302 |  |  |
| B5 | 18.2 |  |  |
| B6 | 390 |  |  |
| B7 | 263 |  |  |
| B8 | 132 |  |  |
| B9 | 4.1 |  |  |

Biological target: T3, cynomolgus FGFR3b expressed with a …
Test: SPR (Biacore), captured mAb, 25 C
Description: as §1, §2

| Binder | t½ [min] |
| --- | --- |
| B10 | 1.4 |
| B12 | 85.2 |
| B1 | 1.3 |
| B2 | 2.6 |
| B3 | 1.3 |
| B4 | 275 |
| B5 | 14.8 |
| B6 | 520 |
| B7 | 350 |
| B8 | 118 |
| B9 | 5.2 |
| B13 | 50.2 |

Biological target: T4, murine FGFR3b expressed with a …
Test: SPR (Biacore), captured mAb, 25 C
Description: as §1, §2

| Binder | t½ [min] |
| --- | --- |
| B10 | 9.5 |
| B12 | 5.8 |
| B4 | 416 |
| B5 | 2.4 |
| B6 | 6.9 |
| B7 | 320 |
| B9 | 4.9 |
